Assay results taken from the supplement of paper PMC10065799, “High-throughput profiling of sequence recognition by tyrosine kinases and SH2 domains using bacterial peptide display” (eLife, 2023).

How the values were obtained:
Hck = Hck (UniProt P08631); assay: phosphorylation enrichment, bacterial display (enrichment ratio); higher = better substrate or ligand; peptides without Tyr show the background
c-Src = assay: as above
Fyn = Fyn (UniProt P06241); assay: as above
FGFR1 = FGFR1 (UniProt P11362); assay: as above
Jak2 = Jak2 (UniProt O60674); assay: as above
FGFR3 = FGFR3 (UniProt P22607); assay: as above
AncSZ = assay: as above
Fes = Fes (UniProt P07332); assay: as above
MERTK = MERTK (UniProt Q12866); assay: as above
c-Abl (mouse) = assay: as above
EPHB2 = EPHB2 (UniProt P29323); assay: as above
EPHB1 = EPHB1 (UniProt P54762); assay: as above
Fer (mouse) = assay: as above
Grb2 SH2 = Grb2 SH2 (UniProt P62993); assay: SH2 binding enrichment of the phosphorylated peptide, bacterial display (enrichment ratio); higher = better substrate or ligand; peptides without Tyr show the background
SHP2-C SH2 = assay: as above
c-Src SH2 = assay: as above
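Wherever SH2 binding enrichment of the phosphorylated peptide, bacterial display is given: peptide library displayed on the E. coli surface as eCPX fusions, selected cells deep-sequenced, score is each peptide's frequency after selection divided by its frequency in the input.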
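Wherever phosphorylation enrichment, bacterial display is given: 11-residue human phosphosite peptides and single-mutation variants displayed on the E. coli surface, counted by deep sequencing, each peptide's frequency after selection divided by its frequency in the unselected input library; frequency after pTyr selection over input frequency; kinase dosed for 20-30% of maximal phosphorylation in three min.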

Chain of Hck (P08631 whole entry, looked up): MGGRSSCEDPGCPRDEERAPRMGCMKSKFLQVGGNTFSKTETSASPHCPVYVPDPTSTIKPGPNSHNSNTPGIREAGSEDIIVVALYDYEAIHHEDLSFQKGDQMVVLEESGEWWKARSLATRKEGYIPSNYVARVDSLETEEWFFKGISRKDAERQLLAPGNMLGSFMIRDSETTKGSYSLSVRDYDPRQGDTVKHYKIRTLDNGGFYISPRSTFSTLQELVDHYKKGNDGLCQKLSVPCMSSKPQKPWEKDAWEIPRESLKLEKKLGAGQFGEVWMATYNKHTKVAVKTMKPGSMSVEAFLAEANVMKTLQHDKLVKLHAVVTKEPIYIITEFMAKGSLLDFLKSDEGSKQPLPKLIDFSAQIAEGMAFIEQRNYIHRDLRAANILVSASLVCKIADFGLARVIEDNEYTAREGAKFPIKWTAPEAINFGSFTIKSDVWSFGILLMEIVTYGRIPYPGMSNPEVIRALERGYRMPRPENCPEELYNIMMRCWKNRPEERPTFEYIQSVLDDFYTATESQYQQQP
Chain of Fes (P07332 whole entry, looked up): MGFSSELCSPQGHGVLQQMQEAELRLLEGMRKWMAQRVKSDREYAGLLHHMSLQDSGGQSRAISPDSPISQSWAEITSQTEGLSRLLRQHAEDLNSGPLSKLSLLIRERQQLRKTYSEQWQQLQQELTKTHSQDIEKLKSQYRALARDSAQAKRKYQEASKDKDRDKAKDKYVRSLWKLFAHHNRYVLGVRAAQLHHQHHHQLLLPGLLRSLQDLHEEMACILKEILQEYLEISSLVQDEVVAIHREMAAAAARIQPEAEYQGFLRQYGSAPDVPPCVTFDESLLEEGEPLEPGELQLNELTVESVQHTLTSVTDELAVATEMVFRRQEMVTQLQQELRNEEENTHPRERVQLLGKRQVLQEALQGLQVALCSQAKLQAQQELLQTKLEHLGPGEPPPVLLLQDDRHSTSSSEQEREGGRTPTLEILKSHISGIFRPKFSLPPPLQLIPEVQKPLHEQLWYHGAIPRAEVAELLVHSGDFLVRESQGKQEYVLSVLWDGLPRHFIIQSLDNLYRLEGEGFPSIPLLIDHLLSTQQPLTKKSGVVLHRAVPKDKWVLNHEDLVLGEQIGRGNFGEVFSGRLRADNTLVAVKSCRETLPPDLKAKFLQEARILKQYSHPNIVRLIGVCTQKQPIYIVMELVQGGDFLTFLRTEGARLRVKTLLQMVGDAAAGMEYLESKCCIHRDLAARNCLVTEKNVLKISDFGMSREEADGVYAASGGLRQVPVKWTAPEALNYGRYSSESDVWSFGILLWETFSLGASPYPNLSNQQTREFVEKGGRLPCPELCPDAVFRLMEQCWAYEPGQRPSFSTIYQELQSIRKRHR
Chain of Fyn (P06241 whole entry, looked up): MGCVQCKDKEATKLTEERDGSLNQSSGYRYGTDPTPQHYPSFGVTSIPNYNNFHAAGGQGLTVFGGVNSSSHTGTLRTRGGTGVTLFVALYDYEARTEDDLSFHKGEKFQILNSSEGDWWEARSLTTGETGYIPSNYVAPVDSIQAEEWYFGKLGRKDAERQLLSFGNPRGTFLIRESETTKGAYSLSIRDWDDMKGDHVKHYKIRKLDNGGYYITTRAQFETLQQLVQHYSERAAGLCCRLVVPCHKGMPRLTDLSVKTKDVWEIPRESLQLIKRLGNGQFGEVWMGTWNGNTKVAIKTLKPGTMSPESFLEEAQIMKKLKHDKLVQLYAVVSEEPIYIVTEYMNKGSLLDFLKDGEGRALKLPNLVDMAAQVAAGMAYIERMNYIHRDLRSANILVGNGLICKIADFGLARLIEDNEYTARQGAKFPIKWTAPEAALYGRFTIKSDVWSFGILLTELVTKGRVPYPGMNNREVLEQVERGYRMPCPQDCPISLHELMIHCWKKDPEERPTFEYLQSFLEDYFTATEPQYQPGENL
Chain of EPHB2 (P29323 whole entry, looked up): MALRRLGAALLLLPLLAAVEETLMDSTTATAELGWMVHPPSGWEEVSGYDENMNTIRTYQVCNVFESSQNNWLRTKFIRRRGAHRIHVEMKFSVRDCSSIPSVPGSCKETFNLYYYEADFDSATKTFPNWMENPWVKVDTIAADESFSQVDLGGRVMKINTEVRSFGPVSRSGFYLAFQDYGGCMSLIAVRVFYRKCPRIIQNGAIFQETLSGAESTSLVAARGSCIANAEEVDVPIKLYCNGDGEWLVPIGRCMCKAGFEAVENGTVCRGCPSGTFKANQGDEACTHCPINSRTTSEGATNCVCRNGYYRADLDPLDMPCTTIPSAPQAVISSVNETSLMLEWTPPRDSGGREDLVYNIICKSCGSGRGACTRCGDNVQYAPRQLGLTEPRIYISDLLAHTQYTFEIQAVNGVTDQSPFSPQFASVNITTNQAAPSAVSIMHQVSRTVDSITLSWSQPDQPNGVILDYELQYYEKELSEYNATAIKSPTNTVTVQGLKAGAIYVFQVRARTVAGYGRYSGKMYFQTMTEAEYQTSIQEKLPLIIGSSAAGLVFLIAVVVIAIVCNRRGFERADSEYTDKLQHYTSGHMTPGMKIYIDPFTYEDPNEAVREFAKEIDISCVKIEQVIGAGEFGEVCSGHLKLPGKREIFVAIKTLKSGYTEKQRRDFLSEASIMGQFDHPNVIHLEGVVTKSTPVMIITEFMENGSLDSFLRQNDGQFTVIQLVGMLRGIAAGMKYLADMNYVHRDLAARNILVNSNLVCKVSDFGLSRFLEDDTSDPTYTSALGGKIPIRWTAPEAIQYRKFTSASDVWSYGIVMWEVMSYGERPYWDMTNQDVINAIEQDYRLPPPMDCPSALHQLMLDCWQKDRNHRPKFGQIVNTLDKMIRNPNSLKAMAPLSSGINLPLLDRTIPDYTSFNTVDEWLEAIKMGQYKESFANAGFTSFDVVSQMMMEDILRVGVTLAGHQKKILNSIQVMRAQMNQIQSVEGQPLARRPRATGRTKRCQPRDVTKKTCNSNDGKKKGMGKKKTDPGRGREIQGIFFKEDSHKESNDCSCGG
Chain of FGFR1 (P11362 whole entry, looked up): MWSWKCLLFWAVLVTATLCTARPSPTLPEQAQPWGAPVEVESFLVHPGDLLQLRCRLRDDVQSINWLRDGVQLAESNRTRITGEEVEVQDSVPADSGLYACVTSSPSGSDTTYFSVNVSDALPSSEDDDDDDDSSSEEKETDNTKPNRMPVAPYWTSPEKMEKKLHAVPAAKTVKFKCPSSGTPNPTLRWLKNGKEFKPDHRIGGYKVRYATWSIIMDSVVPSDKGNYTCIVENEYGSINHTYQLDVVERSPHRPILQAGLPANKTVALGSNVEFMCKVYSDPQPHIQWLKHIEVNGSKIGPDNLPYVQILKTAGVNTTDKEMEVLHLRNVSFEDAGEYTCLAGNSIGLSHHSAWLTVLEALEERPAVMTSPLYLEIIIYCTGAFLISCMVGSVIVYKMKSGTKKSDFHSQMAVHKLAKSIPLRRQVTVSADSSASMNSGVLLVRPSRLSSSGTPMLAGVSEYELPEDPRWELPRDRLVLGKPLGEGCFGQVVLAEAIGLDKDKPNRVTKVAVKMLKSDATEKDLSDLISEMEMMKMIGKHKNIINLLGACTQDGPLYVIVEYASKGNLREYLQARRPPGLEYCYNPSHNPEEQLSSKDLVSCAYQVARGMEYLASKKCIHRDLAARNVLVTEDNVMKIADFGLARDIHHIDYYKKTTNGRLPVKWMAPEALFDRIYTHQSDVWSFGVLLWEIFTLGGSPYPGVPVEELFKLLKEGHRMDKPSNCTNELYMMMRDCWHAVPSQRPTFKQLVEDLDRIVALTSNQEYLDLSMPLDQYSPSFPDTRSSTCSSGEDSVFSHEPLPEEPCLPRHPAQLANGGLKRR
Chain of Grb2 SH2 (P62993 whole entry, looked up): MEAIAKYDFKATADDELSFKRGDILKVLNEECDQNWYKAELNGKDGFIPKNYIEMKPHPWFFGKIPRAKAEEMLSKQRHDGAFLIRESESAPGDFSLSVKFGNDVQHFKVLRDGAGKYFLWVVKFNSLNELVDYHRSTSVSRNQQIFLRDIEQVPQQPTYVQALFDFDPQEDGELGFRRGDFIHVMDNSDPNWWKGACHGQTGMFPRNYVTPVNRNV
Chain of MERTK (Q12866 whole entry, looked up): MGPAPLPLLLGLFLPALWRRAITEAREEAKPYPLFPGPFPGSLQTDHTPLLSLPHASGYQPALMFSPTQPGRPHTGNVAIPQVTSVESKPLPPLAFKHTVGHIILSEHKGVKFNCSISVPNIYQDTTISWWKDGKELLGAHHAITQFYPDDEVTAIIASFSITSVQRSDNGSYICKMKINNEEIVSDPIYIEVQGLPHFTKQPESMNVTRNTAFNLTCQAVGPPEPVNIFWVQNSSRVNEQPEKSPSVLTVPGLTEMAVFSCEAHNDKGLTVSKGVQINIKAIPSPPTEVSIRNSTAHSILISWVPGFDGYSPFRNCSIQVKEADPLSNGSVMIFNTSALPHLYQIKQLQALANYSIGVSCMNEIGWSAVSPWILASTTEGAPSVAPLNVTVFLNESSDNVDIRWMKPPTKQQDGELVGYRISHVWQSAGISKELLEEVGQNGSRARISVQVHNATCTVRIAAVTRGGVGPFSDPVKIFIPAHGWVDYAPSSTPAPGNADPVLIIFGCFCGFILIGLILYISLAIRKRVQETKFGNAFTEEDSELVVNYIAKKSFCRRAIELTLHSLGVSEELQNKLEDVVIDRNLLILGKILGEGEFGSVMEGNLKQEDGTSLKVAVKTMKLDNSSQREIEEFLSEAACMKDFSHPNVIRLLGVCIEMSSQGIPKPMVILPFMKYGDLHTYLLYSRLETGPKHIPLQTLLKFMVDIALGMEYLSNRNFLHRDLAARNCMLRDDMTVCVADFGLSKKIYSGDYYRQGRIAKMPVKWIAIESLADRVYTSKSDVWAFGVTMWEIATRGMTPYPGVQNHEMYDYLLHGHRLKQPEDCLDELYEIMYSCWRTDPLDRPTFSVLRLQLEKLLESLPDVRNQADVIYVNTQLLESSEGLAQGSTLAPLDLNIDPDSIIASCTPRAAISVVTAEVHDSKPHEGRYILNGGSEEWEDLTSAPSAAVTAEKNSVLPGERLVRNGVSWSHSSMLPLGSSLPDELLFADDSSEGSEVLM

Row | Sequence | phosphorylation enrichment (Hck) | phosphorylation enrichment (c-Src) | phosphorylation enrichment (Fyn) | phosphorylation enrichment (FGFR1) | phosphorylation enrichment (Jak2) | phosphorylation enrichment (FGFR3) | phosphorylation enrichment (AncSZ) | phosphorylation enrichment (Fes) | phosphorylation enrichment (MERTK) | phosphorylation enrichment (c-Abl (mouse)) | phosphorylation enrichment (EPHB2) | phosphorylation enrichment (EPHB1) | phosphorylation enrichment (Fer (mouse)) | SH2 binding enrichment (Grb2 SH2) | SH2 binding enrichment (SHP2-C SH2) | SH2 binding enrichment (c-Src SH2)
1 | MSRNLYSGDCY [DDR2_Y736_Y740C] | 2.27 | 1.49 | 1.96 | 0.951 | 0.69 | 1.15 | 0.985 | 0.993 | 4.75 | 0.581 | 2.35 | 2.11 | 0.811 | 0.796 | 0.614 | 0.746
2 | MSSHHCDFKKF [ZNF445_Y428_Y428C_YF] | 0.452 | 0.415 | 0.392 | 0.437 | 0.519 | 0.417 | 0.47 | 0.487 | 0.474 | 0.529 | 0.393 | 0.401 | 0.43 | 0.811 | 0.759 | 0.449
3 | MSSHHCDYKKY [ZNF445_Y428_Y428C] | 0.372 | 0.452 | 0.472 | 0.965 | 0.475 | 0.437 | 0.633 | 0.661 | 0.432 | 0.517 | 0.385 | 0.366 | 0.388 | 0.962 | 0.665 | 0.553
4 | MSSLFYANTLF [HOXB7_Y6_YF] | 0.905 | 0.883 | 0.905 | 0.656 | 0.859 | 0.735 | 0.906 | 1.19 | 3.91 | 0.693 | 0.834 | 1.14 | 3.42 | 0.905 | 0.861 | 0.509
5 | MTRDIYETDYY [INSR_Y1185] | 1.39 | 2.42 | 1.63 | 1.89 | 1.02 | 1.93 | 2.66 | 1.13 | 0.746 | 0.712 | 1.34 | 1.39 | 0.831 | 0.716 | 0.6 | 0.744
6 | MWGSDYVHLSR [MAP3K4_Y582_Q584H] | 0.486 | 0.471 | 0.472 | 3.31 | 1.72 | 1.82 | 0.951 | 0.693 | 0.53 | 0.804 | 1.47 | 3.2 | 0.417 | 0.914 | 0.746 | 0.568
7 | NACGLYHKMNG [GATA5_Y216] | 0.533 | 0.523 | 0.371 | 0.581 | 0.798 | 0.567 | 0.795 | 1.03 | 0.624 | 0.525 | 0.447 | 0.508 | 0.673 | 0.81 | 0.945 | 1.95
8 | NAMRRHIEEFQ [MNS1_Y244_Y244H] | 0.366 | 0.347 | 0.367 | 0.348 | 0.672 | 0.497 | 0.634 | 0.741 | 0.469 | 0.628 | 0.411 | 0.398 | 0.346 | 0.676 | 0.636 | 0.435
9 | NARGLYYKLHN [GATA2_Y376_C373R] | 0.954 | 0.695 | 0.572 | 1.08 | 2.12 | 1.02 | 1.11 | 0.975 | 2.59 | 0.874 | 0.586 | 0.595 | 0.496 | 1.02 | 0.866 | 1.23
10 | NCFKFYMSDDI [ATRX_Y204_YF] | 0.512 | 0.447 | 0.386 | 0.565 | 1.17 | 0.745 | 1.2 | 1.23 | 0.394 | 0.95 | 0.53 | 0.605 | 0.521 | 0.973 | 0.721 | 0.689
11 | NCFKYYMSDDI [ATRX_Y204] | 0.548 | 0.811 | 0.491 | 0.959 | 1.32 | 0.931 | 1.33 | 1.51 | 0.562 | 1.17 | 0.625 | 0.748 | 0.496 | 0.97 | 0.799 | 1.52
12 | NCLREYVAGRF [CRB1_Y711] | 0.411 | 0.555 | 0.487 | 0.53 | 0.91 | 0.51 | 0.702 | 0.891 | 0.461 | 0.651 | 0.554 | 0.469 | 0.417 | 0.915 | 0.684 | 0.531
13 | NDDDVYRSLEE [VAV2_Y142] | 0.665 | 0.584 | 0.53 | 0.608 | 1.24 | 0.793 | 1.19 | 1.23 | 0.524 | 0.898 | 0.722 | 0.6 | 0.526 | 1 | 0.748 | 0.606
14 | NDEDIYKGLPD [VAV3_Y141] | 0.878 | 0.837 | 0.879 | 0.584 | 0.947 | 0.794 | 1.23 | 1.21 | 0.444 | 0.802 | 0.674 | 0.727 | 0.534 | 0.85 | 0.902 | 0.57
